Test results from paper PMC6084945, “SURGE complex of Plasmodium falciparum in the rhoptry-neck (SURFIN4.2-RON4-GLURP) contributes to merozoite invasion” (PLoS ONE, 2018).

Molecular target: the molecule itself
Experiment: non-reducing SDS-PAGE; purified recombinant protein eluted from the nickel resin, Coomassie stained gel with and without 2-mercaptoethanol; dimer size band under non-reducing conditions

B1: recombinant SURFIN4.2 extracellular domain (position 1-746), N-terminal 6x histidine-tagged (domain or fragment)
chain: MLFVVELDSRLEKSADKRISVERFRKIFEIYVEDKLEELKRSGSEKYDKDCRDFNYFIDDVKDVFINNDLVKIPVKVRKSIWETHVDKNLPKLMKNTTSCKCIRKEHNYNKEYRDMTRTLEDFCEEKTRKLEIIYQKDYDESLYVNFNEWINKKKEDILKEYEKLSNKDKYKHLLKISETCDLNHVDKLFLNISSEDMKKMKEDVKKQHLEVKVRPPVNEPIDDRGKEDALSRGGKSIILNKEENSPTEEITTEYNPVSEMGVGTTIAHSEPGPKTVNTEVRNVLRSDGKISDQGSQKSPPKELSNKQMTPAQRKNVPHFVERRGYGNSHVRGNALKKISNGDDNYKSPSSNYIEVDCAEDKYFLLEDGTNQSENSCKTKYNYFVSNDYDGTGSAIYSTDQVPSREEIKSPDSLSTLDARGSTHNLNVSNEGNPLEGGEEKNNVKISEQNGRNLESSVGTDKGSDKNEEEVAATCDPNDRNCFDGRYINVDYIRGLLKGKRSGSDGRSNIKHIISNNFDDSNMIFPTFNFDFDILKAEEEVLPVNNSDIIYGHEEVEETTQEGASIFEKHSHTSSQQNDSSASGNKYRMLSTTMELPNQQEVFGLYSPVSRTLDSAMSFLRSIISLSSAPVSRSEGQSKESKRVEISTTVQDPIGYRTSPLQMNAHSVGAGINVSSILSMLGLSSGQVRRSGGQGSETYIVGTSQSGFHKNEVIPSIKDKSGKTQIVSNEKGGIFSKGITSMMSSL
B1 was tested, and the “stoichiometry N” value was 2.
